US20030158387A1
Read-outs that look alike come from different tables or passages of the source. *: point of attachment. Nonanoyl = CCCCCCCCC(=O)*

How the values were obtained:
[1] = target: chemokine receptor 1 (CCR1) (UniProt P56482); experiment: competition radioligand binding, membranes of CHO-K1 cells expressing CCR1, tracer [125I]-MIP-1 alpha
[2] = target: chemokine receptor 1 (CCR1) (UniProt P56482)
[3] = target: chemokine receptor 1 (CCR1) (UniProt P56482); remark: listed apart in the source
[4] = target: chemokine receptor 1 (CCR1) (UniProt P56482); experiment: competition radioligand binding, membranes of CHO-K1 cells expressing CCR1, tracer [125I]-MIP-1 alpha; remark: listed apart in the source
[5] = target: chemokine receptor 1 (CCR1) (UniProt P56482); remark: listed apart in the source
[6] = target: chemokine receptor 5 (CCR5) (human), P51681; experiment: competition radioligand binding, membranes of CHO-K1 cells expressing CCR5, tracer [125I]-MIP-1 beta; details: remark: other sources report otherwise
[7] = target: chemokine receptor 5 (CCR5) (human), P51681; experiment: competition radioligand binding, membranes of CHO-K1 cells expressing CCR5, tracer [125I]-MIP-1 beta; mean ± SEM; details: remark: other sources report otherwise
[8] = target: chemokine receptor 1 (CCR1) (UniProt P56482); experiment: competition radioligand binding on CCR1 (assay not given)
[9] = target: chemokine receptor 1 (CCR1) (UniProt P56482); experiment: cell-based or functional assay
[10] = target: chemokine receptor 1 (CCR1) (UniProt P56482); experiment: competition with 125I-RANTES for binding to CCR1
[11] = target: chemokine receptor 1 (CCR1) (UniProt P56482); experiment: competition with 125I-RANTES, membranes of CHO-K1 cells expressing CCR1, filtration, one site competition model; 125I-Rantes tracer, CCR1 membranes

Chain of chemokine receptor 5 (CCR5) (human), P51681 (P51681 whole entry): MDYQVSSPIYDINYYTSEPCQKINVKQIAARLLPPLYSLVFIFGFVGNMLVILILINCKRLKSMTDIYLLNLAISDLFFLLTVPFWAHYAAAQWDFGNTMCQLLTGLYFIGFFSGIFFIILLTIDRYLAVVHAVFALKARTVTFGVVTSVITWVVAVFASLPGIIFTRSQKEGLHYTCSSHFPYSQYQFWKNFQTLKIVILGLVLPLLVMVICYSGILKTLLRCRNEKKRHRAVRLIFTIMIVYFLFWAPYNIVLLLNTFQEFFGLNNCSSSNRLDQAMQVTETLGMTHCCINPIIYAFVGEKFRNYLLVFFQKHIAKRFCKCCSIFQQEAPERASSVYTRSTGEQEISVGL

B1: HCC-1[12-74] (ligand)
chemokine chain: HPSECCFTYTTYKIPRQRIMDYYETNSQCSKPGIVFITKRGHSVCTNPSDKWVQDYIKDMKEN
Q: How did the IC50 (read off the curve) [1] turn out when B1 was run?
A: 40 nM

B2: HCC-1, residues 6-74 (ligand)
chain: SSRGPYHPSECCFTYTTYKIPRQRIMDYYETNSQCSKPGIVFITKRGHSVCTNPSDKWVQDYIKDMKEN
Q: Which EC50 (aequorin luminescence, CHO-K1 cells expressing CCR1) [2] does the source give for B2 here?
A: 262 nM

B3: HCC-1[10-74] (ligand)
chain: PYHPSECCFTYTTYKIPRQRIMDYYETNSQCSKPGIVFITKRGHSVCTNPSDKWVQDYIKDMKEN
Q: Which EC50 (aequorin luminescence, CHO-K1 cells expressing CCR1) [2] does the source give for B3 here?
A: 4.32 nM

Q: What about the EC50 (read off the curve) [3] of the same binder?
A: 3 nM

Q: What about the IC50 (read off the curve) [1] of the same binder?
A: 0.2 nM

Q: What about the IC50 (read off the curve) [4] of the same binder?
A: 0.1 nM

B4: HCC-1[8-74] (ligand)
chain: RGPYHPSECCFTYTTYKIPRQRIMDYYETNSQCSKPGIVFITKRGHSVCTNPSDKWVQDYIKDMKEN
Q: With B4 as the binder, how does the EC50 (aequorin luminescence, CHO-K1 cells expressing CCR1) [2] read?
A: 35.2 nM

B5: NNY-HCC-1[10-74] (nonanoyl-HCC-1[10-74]) (ligand)
chain: Nonanoyl-PYHPSECCFTYTTYKIPRQRIMDYYETNSQCSKPGIVFITKRGHSVCTNPSDKWVQDYIKDMKEN
modifications: ends and bridges not checked
Q: B5 was tested. Which EC50 (aequorin luminescence, CHO-K1 cells expressing CCR1) [2] did it give?
A: 5.9 nM

Q: And the EC50 (read off the curve) [5]?
A: 4 nM

Q: What about the IC50 (read off the curve) [4] of the same binder?
A: 0.1 nM

B6: RANTES, P13501 24-91 (ligand, UniProt P13501 24-91, looked up)
chain: SPYSSDTTPCCFAYIARPLPRAHIKEYFYTSGKCSNPAVVFVTRKNRQVCANPEKKWVREYINSLEMS
modifications: ends and bridges not checked; also: 125I-labelled where used as tracer, unlabelled in functional assays
Q: B6 was tested. Which IC50 (read off the curve) [6] did it give?
A: 0.1 nM

Q: What about the IC50 [7] of the same binder?
A: 0.116 nM

B7: HCC-1[11-74] (ligand)
chain: YHPSECCFTYTTYKIPRQRIMDYYETNSQCSKPGIVFITKRGHSVCTNPSDKWVQDYIKDMKEN
Q: Which EC50 (aequorin luminescence, CHO-K1 cells expressing CCR1) [2] does the source give for B7 here?
A: 40.3 nM

B8: HCC-1[7-74] (ligand)
chain: SRGPYHPSECCFTYTTYKIPRQRIMDYYETNSQCSKPGIVFITKRGHSVCTNPSDKWVQDYIKDMKEN
Q: For B8, which EC50 (aequorin luminescence, CHO-K1 cells expressing CCR1) [2] is on record?
A: 218 nM

B9: full size human chemokine HCC-1 (residues 1-74) (ligand)
chain: TKTESSSRGPYHPSECCFTYTTYKIPRQRIMDYYETNSQCSKPGIVFITKRGHSVCTNPSDKWVQDYIKDMKEN
Q: For B9, which Ki [8] is on record?
A: 100 nM

B10: processed human chemokine PHC-1 (HCC-1[9-74]) (ligand)
chain: GPYHPSECCFTYTTYKIPRQRIMDYYETNSQCSKPGIVFITKRGHSVCTNPSDKWVQDYIKDMKEN
Q: For B10, which EC50 (aequorin luminescence, CHO-K1 cells expressing CCR1) [2] is on record?
A: 2.62 nM

Q: And the EC50 (read off the curve) [3]?
A: 2 nM

Q: What about the EC50 of receptor activation (aequorin assay) [9] of the same binder?
A: 2.8 nM

Q: And the Ki [10]?
A: 0.023 nM

Q: What about the IC50 (read off the curve) [1] of the same binder?
A: 0.2 nM

Q: And the IC50 [11]?
A: 2.3 nM
